Laboratory results as given in US20170022553, “NUCLEIC ACID SEQUENCING METHODS AND SYSTEMS” (OMNIOME, INC., published 2017).
Where a chain is given by its changes, count along the chain named. Names may count otherwise.

Experiments:
[1] = target: T1, Bsu DNA polymerase I large fragment (Bacillus subtilis, UniProt O34996 O34996:297-880); assay: BLI; correct dNTP, Ni(II), 200 mM KCl, 200 mM K glutamate, 30 C; settings: tags: New England Biolabs M0330L; label: 5' biotin on template; primed template with 5' template overhang
T1 sequence (O34996 297-880, one chain of several): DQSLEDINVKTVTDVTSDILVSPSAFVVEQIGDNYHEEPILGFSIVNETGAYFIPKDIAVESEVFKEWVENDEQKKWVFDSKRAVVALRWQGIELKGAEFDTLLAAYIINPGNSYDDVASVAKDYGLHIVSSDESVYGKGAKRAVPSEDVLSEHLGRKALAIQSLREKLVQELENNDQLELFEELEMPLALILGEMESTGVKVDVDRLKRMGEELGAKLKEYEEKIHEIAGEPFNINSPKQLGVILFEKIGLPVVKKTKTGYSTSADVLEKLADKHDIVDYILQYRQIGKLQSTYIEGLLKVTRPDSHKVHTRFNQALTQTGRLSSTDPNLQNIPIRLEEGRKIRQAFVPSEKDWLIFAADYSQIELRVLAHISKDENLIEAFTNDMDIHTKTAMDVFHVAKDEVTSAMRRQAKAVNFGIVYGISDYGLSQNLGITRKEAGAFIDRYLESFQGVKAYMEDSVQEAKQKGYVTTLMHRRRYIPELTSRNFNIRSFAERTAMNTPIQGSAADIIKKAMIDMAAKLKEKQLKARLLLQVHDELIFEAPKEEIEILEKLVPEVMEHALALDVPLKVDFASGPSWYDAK
Procedure: Primer-template duplex was diluted (100 nM) into Annealing Buffer. Wash buffer was 20 mM Tris, pH 8.0, 200 mM KCl, 200 mM potassium glutamate, 0.01% (v/v), Tween-20, 100 μg/mL bovine serum albumin, 1.0 mM dithiothreitol. Binding Buffer was Wash Buffer containing 2.0 mM Ni(II)SO₄. Reaction Buffer was 20 mM Tris, pH 8.0, 50 mM KCl, MgCl₂ (10 mM), 0.01% (v/v) Tween-20, 100 μg/mL bovine serum albumin, 1.0 mM dithiothreitol. EDTA Wash Buffer was Binding Buffer containing 1.0 mM EDTA. Buffer containing Primer-Template (PT), Binding buffer containing one dNTP and Reaction Buffer were loaded (200 μL/well) into a Greiner 96-well black microplate (Sigma-Aldrich, St. Louis, Mo.; catalog number M9685), and PCR-grade mineral oil (Sigma-Aldrich, St. Louis, Mo.; catalog no. M8662) was applied (75 μL/well). High-precision streptavidin biosensors (Pall ForteBio Corp., Menlo Park, Calif.; catalog number 18-5117) were re-hydrated in Annealing Buffer for approximately 10 minutes before use. The Octet QK biosensor system (Pall ForteBio Corp., Menlo Park, Calif.) was set for 30° C. operation and was programmed to coat the biosensors with Primer-Template and wash away unbound Primer-Template with Wash Buffer. […]

[2] = target: T1, Bsu DNA polymerase I large fragment; assay: BLI; dGTP, 1 mM Ni(II), 30 C; highest amplitude; settings: tags: New England Biolabs M0330L; label: 5' biotin on template; primed template with 5' template overhang
Procedure: (§1) Primer-template duplex was diluted (100 nM) into Annealing Buffer. Wash buffer was 30 mM Tris, pH 8.0, 160 mM KCl, 160 mM potassium glutamate, 0.01% (v/v), Tween-20, 100 μg/mL bovine serum albumin, 1.0 mM dithiothreitol. Binding Buffer was Wash Buffer containing Bsu Pol I (68 Unit/mL) 100 μM dGTP+1.0 mM Ni(II)SO₄. Reaction Buffer was Wash Buffer containing Bsu (1 U/mL), MgCl₂ (80 μM), dGTP (28.1 μM), α-S-dGTP (162 μM). EDTA Wash Buffer was Wash Buffer without Ni(II)SO₄ but containing 1.0 mM EDTA. Buffer containing Primer-Template (PT), Binding Buffer and Reaction Buffer containing were loaded (200 μL/well) into a Greiner 96-well black microplate (Sigma-Aldrich, St. Louis, Mo.; catalog number M9685), and PCR-grade mineral oil (Sigma-Aldrich, St. Louis, Mo.; catalog no. M8662) was applied (75 μL/well). […]
(§2) In assays for binding to biosensor coated with ssDNA primer-template, Bsu Pol I enzyme bound strongly to the primer/template-coated biosensor in the presence of correct dGTP (FIGS. 18A and 18B). […] The association phase for formation of the ternary complex was analyzed for how the association kinetic parameters may be affected by the number of nucleotides for incorporation into the homopolymer of the primer/template.

[3] = target: T1, Bsu DNA polymerase I large fragment; assay: BLI; dGTP, 1 mM Ni(II), 30 C; lower amplitude, higher kobs than ALK-G1; settings: tags: New England Biolabs M0330L; label: 5' biotin on template; primed template with 5' template overhang
Procedure: as §1, §2

[4] = target: Bst DNA polymerase, full length (Bacillus stearothermophilus, UniProt P52026 P52026:1-876); assay: BLI; correct dNTP, 300 mM KCl, 30 C; minimal binding without dNTP; settings: tags: New England Biolabs M0328L; label: 5' biotin on template; primed template with 5' template overhang
Chain of Bst DNA polymerase, full length (P52026 whole entry, one chain of several): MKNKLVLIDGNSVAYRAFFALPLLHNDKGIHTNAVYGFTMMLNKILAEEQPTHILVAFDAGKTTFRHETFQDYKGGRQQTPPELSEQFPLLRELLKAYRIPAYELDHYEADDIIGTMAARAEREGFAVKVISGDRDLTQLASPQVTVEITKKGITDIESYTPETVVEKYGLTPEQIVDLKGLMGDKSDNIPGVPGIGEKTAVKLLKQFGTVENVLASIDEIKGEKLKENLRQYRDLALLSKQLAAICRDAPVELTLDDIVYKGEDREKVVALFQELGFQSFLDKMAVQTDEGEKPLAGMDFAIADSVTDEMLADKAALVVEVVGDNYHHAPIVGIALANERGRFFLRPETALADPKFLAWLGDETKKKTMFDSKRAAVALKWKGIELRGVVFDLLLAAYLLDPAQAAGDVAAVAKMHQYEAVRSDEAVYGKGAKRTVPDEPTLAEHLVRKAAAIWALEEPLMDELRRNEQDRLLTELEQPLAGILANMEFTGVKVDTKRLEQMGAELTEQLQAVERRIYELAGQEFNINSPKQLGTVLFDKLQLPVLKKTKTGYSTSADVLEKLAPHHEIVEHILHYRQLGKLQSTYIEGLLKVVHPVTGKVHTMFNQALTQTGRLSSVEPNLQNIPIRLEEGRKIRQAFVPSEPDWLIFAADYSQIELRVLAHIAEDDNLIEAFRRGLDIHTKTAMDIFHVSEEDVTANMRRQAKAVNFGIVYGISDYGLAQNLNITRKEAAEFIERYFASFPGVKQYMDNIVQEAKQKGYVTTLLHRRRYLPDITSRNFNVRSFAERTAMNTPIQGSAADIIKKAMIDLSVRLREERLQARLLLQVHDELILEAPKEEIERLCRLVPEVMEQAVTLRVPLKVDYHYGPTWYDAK
Procedure: Primer-template duplex was diluted (100 μM) into Annealing Buffer. Binding buffer was 50 mM Tris, pH 8.0, 300 mM KCl, 0.1% (v/v) Triton-X100, 100 μg/mL bovine serum albumin. Reaction Buffer was Binding Buffer containing 10 mM MgCl₂. Buffer containing Primer-Template (PT), Binding buffer containing one dNTP, and Reaction Buffer were loaded (200 μL/well) into a Greiner 96-well black microplate (Sigma-Aldrich, St. Louis, Mo.; catalog number M9685), and PCR-grade mineral oil (Sigma-Aldrich, St. Louis, Mo.; catalog no. M8662) was applied (75 μL/well). Streptavidin (SA) Biosensors (Pall ForteBio Corp., Menlo Park, Calif.; catalog number 18-5019) were re-hydrated in Annealing Buffer for approximately 10 minutes before use. The Octet QK biosensor system (Pall ForteBio Corp., Menlo Park, Calif.) was set for 30° C. operation and was programmed to coat the biosensors with Primer-Template and wash away unbound Primer-Template with Binding Buffer. Biosensors were transferred to Binding Buffer containing 136 Unit/mL Bst DNA Polymerase and 200 μM dNTP (dATP, dTTP, dGTP or dCTP) as indicated (association phase) followed by Reaction Buffer for dNTP incorporation. Biosensors were transferred to Reaction Buffer containing Bst DNA Polymerase (136 Unit/mL) without dNTP to promote nick translation via 5′-3′ exonuclease activity. […]

B1: ALK C4493A/4496-4509AS primer-template (dsDNA)
DNA 1: GTGAGCCTGCAATCCCTGCCCCGGTTCATCCTGATGGAGCTCATGGCGGG
DNA 2: CCCGCCATGAGCTC
modifications: 3' inverted dT on template
binding result [1]: binds

B2: ALK-G1 primer-template (dsDNA)
DNA 1: B1 DNA 1 with A34C
DNA 2: CCCGCCATGAGCTCCA
modifications: 3' inverted dT on template
binding result [2]: binds

B3: ALK-G2 primer-template (dsDNA)
DNA 1: B1 DNA 1 with A34C
DNA 2: CCCGCCATGAGCTCCAGCA
modifications: 3' inverted dT on template
binding result [3]: binds

B4: ALK wild-type 4460-4509S/4496-4509AS primer-template (dsDNA)
DNA 1: B1 DNA 1 with A34C
DNA 2: CCCGCCATGAGCTC
modifications: 3' inverted dT on template
binding result [4]: binds

B5: ALK-G4 primer-template (dsDNA)
DNA 1: B1 DNA 1 with A34C
DNA 2: CCCGCCATGAGCTCCAGCAGGATGAACC
modifications: 3' inverted dT on template
binding result [3]: binds
